Publication PMC3315481, “Phosphorylation of the Drosophila melanogaster RNA–Binding Protein HOW by MAPK/ERK Enhances Its Dimerization and Activity” (PLoS Genetics, 2012)
Changes are numbered by the printed parent chain. Names and notes keep the numbering of the source.

B1: Held Out Wings, long isoform, phospho-mutant T59A T64A (HOW(L)^TTAA) (natural protein, Drosophila melanogaster, UniProt O01367 1-405, looked up)
chain: MSVCESKAVVQQQLQQHLQQQAAAAVVAVAQQQQAQAQAQAQAQAQQQQQAPQVVVPMAPQHLAPQQQQQSTQSIADYLAQLLKDRKQLAAFPNVFTHVERLLDEEIARVRASLFQINGVKKEPLTLPEPEGSVVTMNEKVYVPVREHPDFNFVGRILGPRGMTAKQLEQETGCKIMVRGKGSMRDKKKEDANRGKPNWEHLSDDLHVLITVEDTENRATVKLAQAVAEVQKLLVPQAEGEDELKKRQLMELAIINGTYRDTTAKSVAVCDEEWRRLVAASDSRLLTSTGLPGLAAQIRAPAAAPLGAPLILNPRMTVPTTAASILSAQAAPTAAFDQTGHGMIFAPYDYANYAALAGNPLLTEYADHSVGAIKQQRRLATNREHPYQRATVGVPAKPAGFIEIQ
notes: Held Out Wings (HOW), isoform HOW(L), Drosophila melanogaster, with T59 and T64 mutated to alanine; Two differently tagged copies met in the co-IP: one fused to GFP (bait, vector pTGW) and one tagged with HA (prey, vector pTWH); also called HOW^TTAA; gfp-how(l)^TTAA; source: S2R+ cells, co-transfected, in lysate
B2: Held Out Wings, long isoform, dimerization mutant E106G (HOW(L)^EG) (natural protein, Drosophila melanogaster, UniProt O01367 1-405, looked up)
chain: B1 chain with A59T, A64T, E106G
notes: Held Out Wings (HOW), isoform HOW(L), Drosophila melanogaster, with E106 mutated to glycine; Two differently tagged copies met in the co-IP: one fused to GFP (bait, vector pTGW) and one tagged with HA (prey, vector pTWH); also called HOW^EG; gfp-how(l)^EG; source: S2R+ cells, co-transfected, in lysate

Target: the molecule itself
Experiment: co-IP; S2R+ cells co-transfected with GFP-fused and HA-tagged HOW(L) variants (or gfp with how(l)^WT-HA); lysis in 1% NP40 buffer (50 mM Tris pH 7.5, 100 mM NaCl); IP with mouse anti-GFP on protein A/G beads 1-2 h at 4°C; Western blot with anti-HOW; co-precipitated HA protein normalised to its crude level and to the precipitated GFP protein

Row | Protein | co-immunoprecipitated HA protein, normalised, relative to HOW(L)^WT
1 | B1 | 0.56 ± 0.14
2 | B2 | 0.13 ± 0.04
